From article PMC10397247
One block for each binder: values may come before it.

Legend:
4H349-bH = target: T1, 4H349-bH; experiment: two-hybrid library CCNG1;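 also: natural log of median RNA to DNA barcode read ratio; higher means stronger binding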
T1 chain: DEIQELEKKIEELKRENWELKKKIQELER

4H56-bH = target: T2, 4H56-bH; experiment: two-hybrid library CCNG1;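 also: natural log of median RNA to DNA barcode read ratio; higher means stronger binding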
T2 chain: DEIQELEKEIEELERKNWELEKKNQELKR

4H730-bH = target: T3, 4H730-bH; experiment: two-hybrid library CCNG1;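 also: natural log of median RNA to DNA barcode read ratio; higher means stronger binding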
T3 chain: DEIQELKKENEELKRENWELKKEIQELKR

4H796-bH = target: T4, 4H796-bH; experiment: two-hybrid library CCNG1;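 also: natural log of median RNA to DNA barcode read ratio; higher means stronger binding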
T4 chain: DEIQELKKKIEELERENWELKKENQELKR

4H932-bH = target: T5, 4H932-bH; experiment: two-hybrid library CCNG1;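 also: natural log of median RNA to DNA barcode read ratio; higher means stronger binding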
T5 chain: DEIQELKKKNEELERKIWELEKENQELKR

4H949-bH = target: T6, 4H949-bH; experiment: two-hybrid library CCNG1;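 also: natural log of median RNA to DNA barcode read ratio; higher means stronger binding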
T6 chain: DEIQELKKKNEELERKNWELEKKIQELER

4H349-bN = target: T7, 4H349-bN; experiment: two-hybrid library CCNG1
T7 chain: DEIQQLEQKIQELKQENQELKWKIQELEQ

4H56-bN = target: T8, 4H56-bN; experiment: two-hybrid library CCNG1
T8 chain: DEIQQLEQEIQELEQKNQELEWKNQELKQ

4H730-bN = target: T9, 4H730-bN; experiment: two-hybrid library CCNG1
T9 chain: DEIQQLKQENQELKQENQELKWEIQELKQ

4H796-bN = target: T10, 4H796-bN; experiment: two-hybrid library CCNG1
T10 chain: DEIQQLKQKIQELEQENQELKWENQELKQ

4H932-bN = target: T11, 4H932-bN; experiment: two-hybrid library CCNG1
T11 chain: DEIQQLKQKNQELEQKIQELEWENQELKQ

4H949-bN = target: T12, 4H949-bN; experiment: two-hybrid library CCNG1
T12 chain: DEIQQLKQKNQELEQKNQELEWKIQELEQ

4H963-AA = target: T13, 4H963-AA; experiment: two-hybrid library CCmax
T13 chain: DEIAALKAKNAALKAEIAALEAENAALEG

APC4264-AA = target: T14, APC4264-AA; experiment: two-hybrid library CCmax
T14 chain: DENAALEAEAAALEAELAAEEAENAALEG

APC4436-AA = target: T15, APC4436-AA; experiment: two-hybrid library CCmax; conditions: mean of both orientations
T15 chain: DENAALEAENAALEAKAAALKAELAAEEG

APC5383-AA = target: T16, APC5383-AA; experiment: two-hybrid library CCmax; conditions: mean of both orientations
T16 chain: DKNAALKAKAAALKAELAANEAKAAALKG

APC6108-AA = target: T17, APC6108-AA; experiment: two-hybrid library CCmax; conditions: mean of both orientations
T17 chain: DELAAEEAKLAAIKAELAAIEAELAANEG

APC7099-AA = target: T18, APC7099-AA; experiment: two-hybrid library CCmax; conditions: mean of both orientations
T18 chain: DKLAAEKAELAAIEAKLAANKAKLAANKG

APC8191-AA = target: T19, APC8191-AA; experiment: two-hybrid library CCmax
T19 chain: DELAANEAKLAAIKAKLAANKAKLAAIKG

APC8910-AA = target: T20, APC8910-AA; experiment: two-hybrid library CCmax; conditions: mean of both orientations
T20 chain: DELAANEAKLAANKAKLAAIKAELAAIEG

APC9096-AA = target: T21, APC9096-AA; experiment: two-hybrid library CCmax; conditions: mean of both orientations
T21 chain: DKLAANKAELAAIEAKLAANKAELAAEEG

APC9319-AA = target: T22, APC9319-AA; experiment: two-hybrid library CCmax; conditions: mean of both orientations
T22 chain: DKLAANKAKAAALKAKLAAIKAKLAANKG

Binder: DEIQELEKKIEELKRENWELKKKIQELER [4H349-bH]
interaction score (4H349-bH): 0.275 | interaction score (4H56-bH): 0.452 | interaction score (4H730-bH): -0.225 | interaction score (4H796-bH): 0.227 | interaction score (4H932-bH): 0.654 | interaction score (4H949-bH): -0.023

Binder: DEIQQLEQKIQELKQENQELKWKIQELEQ [4H349-bN]
interaction score (4H349-bN): -1.89 | interaction score (4H56-bN): -0.3 | interaction score (4H730-bN): -1.05 | interaction score (4H796-bN): -0.249 | interaction score (4H932-bN): -0.258 | interaction score (4H949-bN): -0.958

Continued, values first:

interaction score (4H963-AA): -2.11
Binder: DEIAALKAKNAALKAEIAALEAENAALEG [4H963-AA]

interaction score (APC4264-AA): -1.24 | interaction score (APC4436-AA): -2.34 | interaction score (APC5383-AA): -1.3 | interaction score (APC6108-AA): -1.5 | interaction score (APC7099-AA): -1.96 | interaction score (APC8191-AA): -1.56 | interaction score (APC8910-AA): -1.81 | interaction score (APC9096-AA): -1.45 | interaction score (APC9319-AA): -1.52
Binder: DENAALEAEAAALEAELAAEEAENAALEG [APC4264-AA]
